According to PMC8309162, “Identification and Functional Characterization of Genes Encoding Phenylacetaldehyde Reductases That Catalyze the Last Step in the Biosynthesis of Hydroxytyrosol in Olive” (Plants, 2021):

System: T1, O=CCc1ccc(O)c(O)c1
T1 construct: tag cleavage not mentioned
Test: HPLC quantification of hydroxytyrosol formed
Format: biochemical, Olea europaea
Settings: 0.25-8 mM substrate, Michaelis-Menten, standard assay 5 mM NADPH, 50 mM Tris-HCl pH 8.0, 30 °C (pH of the kinetic run not stated; optimum pH 6.5)

Sequence of OePAR1.1 (Olea europaea) (chain, as listed by the source): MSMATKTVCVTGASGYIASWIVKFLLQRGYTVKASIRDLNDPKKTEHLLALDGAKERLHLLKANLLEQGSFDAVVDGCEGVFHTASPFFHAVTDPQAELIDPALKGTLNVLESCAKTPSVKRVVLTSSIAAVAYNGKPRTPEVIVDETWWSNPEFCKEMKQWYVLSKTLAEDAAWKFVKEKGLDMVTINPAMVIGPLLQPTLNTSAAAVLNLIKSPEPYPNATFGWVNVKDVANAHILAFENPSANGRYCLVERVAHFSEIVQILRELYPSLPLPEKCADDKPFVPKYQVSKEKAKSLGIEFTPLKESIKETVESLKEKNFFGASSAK
Sequence of OePAR1.2 (Olea europaea) (chain, as listed by the source): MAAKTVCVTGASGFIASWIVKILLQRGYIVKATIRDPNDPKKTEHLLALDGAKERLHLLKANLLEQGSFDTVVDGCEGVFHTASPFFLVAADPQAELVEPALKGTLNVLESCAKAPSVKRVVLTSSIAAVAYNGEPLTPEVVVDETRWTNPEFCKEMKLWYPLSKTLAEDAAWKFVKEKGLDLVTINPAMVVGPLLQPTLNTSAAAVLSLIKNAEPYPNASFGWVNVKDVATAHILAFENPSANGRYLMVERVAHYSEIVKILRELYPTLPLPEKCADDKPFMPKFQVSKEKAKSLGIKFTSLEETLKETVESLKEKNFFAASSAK

Substance | Km [µM]
OePAR1.1 (Olea europaea) | 600
OePAR1.2 (Olea europaea) | 800
